Experimental data reported in patent US20180371095A1 (published 2018).

Target: T1, HEK293 cells transfected with recombinant human VSIG3-eGFP (human, UniProt Q5DX21 23-431)
T1 construct: whole, on cells; not shown: eGFP
T1 sequence (looked up): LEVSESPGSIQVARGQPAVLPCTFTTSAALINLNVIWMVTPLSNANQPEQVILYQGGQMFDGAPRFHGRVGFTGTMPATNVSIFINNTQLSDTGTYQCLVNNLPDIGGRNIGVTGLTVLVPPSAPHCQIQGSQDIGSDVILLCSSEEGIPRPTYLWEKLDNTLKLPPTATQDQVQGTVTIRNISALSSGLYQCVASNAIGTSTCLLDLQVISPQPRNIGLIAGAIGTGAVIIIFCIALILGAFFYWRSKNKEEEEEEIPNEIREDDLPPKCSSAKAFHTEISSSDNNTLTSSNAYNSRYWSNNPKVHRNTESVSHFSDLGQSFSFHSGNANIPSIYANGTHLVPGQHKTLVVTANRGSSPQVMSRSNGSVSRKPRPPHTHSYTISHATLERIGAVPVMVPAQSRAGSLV
Experiment: flow cytometry, anti-Fc APC detection

B1: recombinant human Siglec-7 (rhSiglec-7)/Fc protein (Fc fusion, UniProt Q9Y286 19-357, looked up)
chain: QKSNRKDYSLTMQSSVTVQEGMCVHVRCSFSYPVDSQTDSDPVHGYWFRAGNDISWKAPVATNNPAWAVQEETRDRFHLLGDPQTKNCTLSIRDARMSDAGRYFFRMEKGNIKWNYKYDQLSVNVTALTHRPNILIPGTLESGCFQNLTCSVPWACEQGTPPMISWMGTSVSPLHPSTTRSSVLTLIPQPQHHGTSLTCQVTLPGAGVTTNRTIQLNVSYPPQNLTVTVFQGEGTASTALGNSSSLSVLEGQSLRLVCAVDSNPPARLSWTWRSLTLYPSQPSNPLVLELQVHLGDEGEFTCRAQNSLGSQHVSLNLSLQQEYTGKMRPVSGVLLGAVG
notes: also called Fc-tagged Siglec7 protein; human Siglec-7 Fc protein; not shown: human IgG Fc region
binding result: no binding
